Source: article PMC3249379
Read-outs that look alike come from different tables or passages of the source.

Legend:
Experiment in all cases: AUC
[1] = molecular target: GluA4 flip ectodomain, L484Y mutant (R. norvegicus)
[2] = molecular target: GluA4 flip ectodomain, L484Y mutant (R. norvegicus); remark: listed apart in the source
[3] = molecular target: GluA4 flip ectodomain, wild type (NTD and LBD in a tandem array) (R. norvegicus)

Kd [1] [nM] | Kd [2] [nM] | stoichiometry N [2] | Kd [3] [nM] | stoichiometry N [3] | Substance
1500 | 1100 | 4 |  |  | GluA4 flip ectodomain, L484Y mutant (domain or fragment)
 |  |  | 300 | 2 | GluA4 flip ectodomain, wild type (NTD and LBD in a tandem array) (domain or fragment)
